Several values for one entry are separate records, joined by “and”; a condition that tells them apart may be missing. Identical values can stand only once.
System: MALASSEZIA GLOBOSA
Experiment: Inhibition of Malassezia globosa growth, colony count (UFC/ml) on Dixon's Agar
Assay type: cell-based
Conditions: for dil 10X colony count: 200 μl of suspension diluted 10X on Petri dish; for dil 10X colony count / X50 (calculation made based on the dilution): three replicates; for AVERAGE: average of three replicates; for % reduction of Malassezia globosa cells growth (% increase of antimycotic activity): compared to CICLOPIROXOLAMINE alone; for X50 (calculation made based on the dilution): dil 10X count x50
Protocol: To assess the capacity of the LACTOFERRIN to enhance the antimycotic action of the CIPROPIROXOLAMIN, a suspension of a MALASSEZIA GLOBOSA STRAIN is inoculated on a specific culture medium and the capacity of the compounds to inhibit the mycotic growth is observed, by counting of the UFC/ml.
As first approach, the two compounds are tested at the concentration of 1:500 and, subsequently, diluted in culture medium at 2 decreasing concentrations (10× and 100×) in order to visualize the individual activities. Then in order to evaluate the capacity of the LACTOFERRIN to increase the antimycotic effect of the CICLOPIROXOLAMIN, the same test was carried out on the mix of the two active ingredients at different ratios (1:2 and 1:5).
Each test was performed three times and the incubation times were 1 and 4 hours respectively.
Based on the results obtained, the best dilution for the execution of the tests was the 10× dilution and both the incubation times (1 hour and 4 hours) were taken into consideration since the experimental conditions permitted an accurate count to be carried out of the colonies on the Petri dishes.
The microorganism used is MALASSEZIA GLOBOSA.
The microorganisms were cultured in specific culture medium (Dixon's Agar) until reaching a concentration of approximately […] per ml. Aliquots of 1 ml of this inoculum were then taken to which were added respectively: • Ciclopiroxolamine 1:500 • Lactoferrin 1:500 • Mixture 1:2 Ciclopiroxolamine:lactoferrin • Mixture 1:5 Ciclopiroxolamine:lactoferrin
As positive control, the untreated inoculum was used (MALASSEZIA and diluting liquid), as negative controls the two active ingredients in diluting liquid.
After incubations of 1 hour and 4 hours respectively, aliquots of 200 μl of each suspension were spread on Petri dishes.
For each treatment, the test was carried out three times and for 3 different dilutions (non diluted suspension (TQ), dilution 10× and dilution 100×).
The 54 dishes obtained were then examined, after incubation of 5-6 days and the microbial load of each specimen was calculated (UFC/ml).
The % increase of the antimycotic property corresponds to the % reduction of the growth of Malassezia Globosa

B1: Lactoferrin (protein, UniProt P02788 20-710, looked up)
Lactotransferrin: GRRRSVQWCAVSQPEATKCFQWQRNMRKVRGPPVSCIKRDSPIQCIQAIAENRADAVTLDGGFIYEAGLAPYKLRPVAAEVYGTERQPRTHYYAVAVVKKGGSFQLNELQGLKSCHTGLRRTAGWNVPIGTLRPFLNWTGPPEPIEAAVARFFSASCVPGADKGQFPNLCRLCAGTGENKCAFSSQEPYFSYSGAFKCLRDGAGDVAFIRESTVFEDLSDEAERDEYELLCPDNTRKPVDKFKDCHLARVPSHAVVARSVNGKEDAIWNLLRQAQEKFGKDKSPKFQLFGSPSGQKDLLFKDSAIGFSRVPPRIDSGLYLGSGYFTAIQNLRKSEEEVAARRARVVWCAVGEQELRKCNQWSGLSEGSVTCSSASTTEDCIALVLKGEADAMSLDGGYVYTAGKCGLVPVLAENYKSQQSSDPDPNCVDRPVEGYLAVAVVRRSDTSLTWNSVKGKKSCHTAVDRTAGWNIPMGLLFNQTGSCKFDEYFSQSCAPGSDPRSNLCALCIGDEQGENKCVPNSNERYYGYTGAFRCLAENAGDVAFVKDVTVLQNTDGNNNEAWAKDLKLADFALLCLDGKRKPVTEARSCHLAMAPNHAVVSRMDKVERLKQVLLHQQAKFGRNGSDCPDKFCLFQSETKNLLFNDNTECLARLHGKTTYEKYLGPQYVAGITNLKKCSTSPLLEACEFLRK
Log (AVERAGE) (period of incubation 1 hour): 4.13 | dil 10X colony count (period of incubation 1 hour): 303 and 256 and 250 | AVERAGE (period of incubation 1 hour): 13483.33 UFC/ml | % reduction of Malassezia globosa cells growth (% increase of antimycotic activity) (period of incubation 1 hour): −39.4% | X50 (calculation made based on the dilution) (period of incubation 1 hour): 15150 UFC/ml and 12800 UFC/ml and 12500 UFC/ml | Log (AVERAGE) (period of incubation 4 hour): 4.109 | dil 10X colony count (period of incubation 4 hour): 340 and 232 and 200 | AVERAGE (period of incubation 4 hour): 12866.67 UFC/ml | % reduction of Malassezia globosa cells growth (% increase of antimycotic activity) (period of incubation 4 hour): −695.8% | X50 (calculation made based on the dilution) (period of incubation 4 hour): 17000 UFC/ml and 11600 UFC/ml and 10000 UFC/ml
